The test system of series [1] is CD1 nu/nu mice. In words: In vivo anabolic activity in CD1 nu/nu mouse model. The source says: In Vivo Anabolic Activity of Exemplary Peptibodies
The CD1 nu/nu mouse model (Charles River Laboratories, Massachusetts) was used to determine the in vivo efficacy of the peptibodies of the present invention which included the human Fc region (huFc). This model responded to the inhibitors of the present invention with a rapid anabolic response which was associated with increased dry muscle mass and an increase in myofibrillar proteins but was not associated with accumulation in body water content.
A group of 10 8 week old CD1 nu/nu mice were treated twice weekly or once weekly with dosages of 1 mg/kg, 3 mg/kg and 10 mg/kg (subcutaneous injection). The control group of 10 8 week old CD1 nu/nu mice received a twice weekly (subcutaneous) injection of huFc (vehicle) at 10 mg/kg. The animals were weighed every other day and lean body mass determined by NMR on day 0 and day 13. The animals are then scarified at day 14 and the size of the gastrocnemius muscle determined.
In another example, the 1× mTN8-19-32 peptibody was administered to CD1 nu/nu mice in a biweekly injection of 1 mg/kg, 3 mg/kg, 10 mg/kg, and 30 mg/kg compared with the huFc control (vehicle).
CD1 nu/nu male mice (10 animals per group) were treated with twice weekly injections of 1 mg/kg and 3 mg/kg of 1× mTN8-19-7 and 2× mTN8-19-7 for 35 days, while the control group (10 animals) received twice weekly injections of huFc (3 mg/kg).

Series [2] concerns the target T1, myostatin (Homo sapiens, UniProt O14793).
T1 construct: To produce mature myostatin, the pooled promyostatin was enzymatically cleaved between the propeptide and mature myostatin C terminal; made in house
T1 sequence (O14793 267-375): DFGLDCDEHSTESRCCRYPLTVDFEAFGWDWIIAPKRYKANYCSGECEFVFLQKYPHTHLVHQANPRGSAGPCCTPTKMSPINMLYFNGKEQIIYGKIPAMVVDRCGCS
In words: C2C12 pMARE-luc cell based myostatin activity assay. The source says:
The antagonists including the binding agents described herein can be tested for their ability to bind myostatin and inhibit or block myostatin activity. Any number of assays or animal tests may be used to determine the ability of the agent to inhibit or block myostatin activity. Several assays used for characterizing the peptides and peptibodies of the present invention are described in the Examples below. One assay is the C2C12 pMARE-luc assay which makes use of a myostatin-responsive cell line (C2C12 myoblasts) transfected with a luciferase reporter vector containing myostatin/activin response elements (MARE). Exemplary peptibodies are assayed by pre-incubating a series of peptibody dilutions with myostatin, and then exposing the cells to the incubation mixture. The resulting luciferase activity is determined, and a titration curve is generated from the series of peptibody dilutions. The IC50 (the concentration of peptibody to achieve 50% inhibition of myostatin activity as measured by luciferase activity) was then determined. A second assay described below is a BIAcore® assay to determine the kinetic parameters ka (association rate constant), kd (dissociation rate constant), and KD (dissociation equilibrium constant) for the myostatin binding agents and other antagonists such as antibodies capable of binding myostatin and its receptor. Lower dissociation equilibrium constants (KD, expressed in nM) indicated a greater affinity of the peptibody for myostatin. […] These assays are described in Example 3.
C2C12 Cell Based Myostatin Activity Assay
A myostatin-responsive reporter cell line was generated by transfection of C2C12 myoblast cells (ATCC No: CRL-1772) with a pMARE-luc construct. The pMARE-luc construct was made by cloning twelve repeats of the CAGA sequence, representing the myostatin/activin response elements (Dennler et al. EMBO 17: 3091-3100 (1998)) into a pLuc-MCS reporter vector (Stratagene cat #219087) upstream of the TATA box. The myoblast C2C12 cells naturally express myostatin/activin receptors on its cell surface. When myostatin binds the cell receptors, the Smad pathway is activated, and phosphorylated Smad binds to the response element (Macias-Silva et al. Cell 87:1215 (1996)), resulting in the expression of the luciferase gene. Luciferase activity is then measured using a commercial luciferase reporter assay kit (cat # E4550, Promega, Madison, Wis.) according to manufacturer's protocol. A stable line of C2C12 cells that had been transfected with pMARE-luc (C2C12/pMARE clone #44) was used to measure myostatin activity according to the following procedure.
Equal numbers of the reporter cells (C2C12/pMARE clone #44) were plated into 96 well cultures. A first round screening using two dilutions of peptibodies was performed with the myostatin concentration fixed at 4 nM. Recombinant mature myostatin was preincubated for 2 hours at room temperature with peptibodies at 40 nM and 400 nM respectively. The reporter cell culture was treated with the myostatin with or without peptibodies for six hours. Myostatin activity was measured by determining the luciferase activity in the treated cultures. This assay was used to initially identify peptibody hits that inhibited the myostatin signaling activity in the reporter assay. Subsequently, a nine point titration curve was generated with the myostatin concentration fixed at 4 nM. The myostatin was preincubated with each of the following nine concentrations of peptibodies: […], 0.4 nM, 4 nM, 20 nM, 40 nM, 200 nM, 400 nM, 2 uM and 4 uM for two hours before adding the mixture to the reporter cell culture. The IC50 values were for a number of exemplary peptibodies are provided in Tables III and for affinity matured peptibodies, in Table VIII.

The nature of series [3]: In vivo pharmacokinetics in CD1 nu/nu mice. On the set-up: species or system mouse. The following applies: 10 mg/kg and 5 mg/kg, peptibodies without LE sequences. The protocol: In vivo pharmacokinetics experiments were performed using representative peptibodies without the LE sequences.
Series [4] has as its system mdx mice. In words: Treatment of aged mdx mice (Duchenne muscular dystrophy model). The following applies: 10 mg/kg s.c. every other day, three months, vs huFc. The class given is in vivo, mouse. Here is the method: Muscular dystrophy is one of those disorders. The mouse model for Duchenne's muscular dystrophy is the Duchenne mdx mouse (Jackson Laboratories, Bar Harbor, Me.). Aged (10 month old) mdx mice were injected with either the peptibody 1× mTN8-19-33 (n=8/group) or with the vehicle huFc protein (N=6/group) for a three month period of time. The dosing schedule was every other day, 10 mg/kg, by subcutaneous injection.

The mark [5] stands for this setting: affinity matured peptibodies, a range of values is given.
[6] abbreviates: pMARE luc cell-based assay, myostatin 4 nM.

For the substance “1× mTN8-19-21: 1× affinity-matured peptibody; peptide SEYQGLCTRWPWMCPPQGWK”, in series [1] (1× peptibody, 1, 3, 10 mg/kg s.c. twice or once weekly, 14 days, vs huFc control), the total body weight result was “increase in body weight compared with the control”. The IC50 in series [2] (setting [5]) fell in the range of 2.77 to 3.6 nM.

In series [2] (setting [5]), “mTN8-19-14: affinity-matured peptibody; peptide EFTQWHCTRWPWMCPPQRSQ” came in with an IC50 of 4.07 to 6.56 nM.

Turning to “mTN8-19 con1: affinity-matured peptibody; peptide VATQGQCTRWPWMCPPQGWG”, the IC50 in series [2] (setting [5]) was in the range of 1 to 4.4 nM.

As for “1× mTN8-19-7: 1× affinity-matured peptibody; peptide LADHGQCIRWPWMCPPEGWE”, the half-life entry in series [3] is “about 65 hours”.

In the case of “mTN8-19-28: affinity-matured peptibody; peptide SGPQGHCTRWPWMCAPQGWF”, the IC50 in series [2] (setting [5]) amounted to 4.39 nM.

With “mTN8-19-29: affinity-matured peptibody; peptide TLVQGHCTRWPWMCPPQRWV”, the IC50 in series [2] (setting [5]) is 6.36 nM.

“1× mTN8-19-32: 1× affinity-matured peptibody; peptide VADHGHCTRWPWMCPPQGWG”: in series [1] (biweekly injection 1, 3, 10, 30 mg/kg vs huFc control), the total body weight entry was “increase in total body weight”. Moreover, in series [1] (biweekly injection 1, 3, 10, 30 mg/kg, day 13 compared with day 0), the “lean body mass (NMR)” value is given as “increase”. Moreover, the IC50 in series [2] (setting [5]) was in the range of 1.84 to 3.35 nM.

In series [2] (setting [5]), “mTN8-19-13: affinity-matured peptibody; peptide MWQQGHCTRWPWMCPPQGWG” returned an IC50 of 20 nM.

“mTN8-19-5: affinity-matured peptibody; peptide AGAQEHCTRWPWMCAPNDWI”: the IC50 in series [2] (setting [5]) lay in the range of 3.5 to 7.74 nM.

The substance “Linear-20: peptibody; peptide YREMSMLEGLLDVLERLQHY” came in with a 50% inhibitory concentration (IC50) in series [2] (setting [6]) of roughly 11 nM.

The substance “mTN8-19-6: affinity-matured peptibody; peptide GVNQGQCTRWRWMCPPNGWE” yielded an IC50 in series [2] (setting [5]) of 17.3 nM.

Consider “mTN8-19-34: affinity-matured peptibody; peptide IPAHGHCTRWPWMCPPQRWR”, for which, in series [2] (setting [5]), the IC50 lay within 5.03 to 5.07 nM.

As for “L2: peptibody; peptide MEMLDSLFELLKDMVPISKA”, the “inhibition of myostatin activity in cell-based assay” value in series [2] was “inhibit myostatin activity”.

On to “mTN8-19-12: affinity-matured peptibody; peptide SYWQGQCTRWPWMCPPQWRG”, for which, in series [2] (setting [5]), the 50% inhibitory concentration (IC50) was 980 nM.

With “mTN8-19-4: affinity-matured peptibody; peptide MITQGQCTRWPWMCPPQPSG”, the IC50 in series [2] (setting [5]) worked out at 16.7 nM.

In turn, “mTN8-19-10: affinity-matured peptibody; peptide VVTQGHCTLWPWMCPPQRWR” came in with an IC50 in series [2] (setting [5]) of 5.25 to 7.4 nM.

“mTN8-19-27: affinity-matured peptibody; peptide ADTQGHCTRWPWMCPPQHWF”: the IC50 in series [2] (setting [5]) was in the range of 4.84 to 4.92 nM.

Take “mTN8-19-11: affinity-matured peptibody; peptide IYPHDQCTRWPWMCPPQPYP”: the IC50 in series [2] (setting [5]) was determined as 28.7 nM.

Turning to “mTN8-19-9: affinity-matured peptibody; peptide TQTHAQCTRWPWMCPPQWEG”, the IC50 in series [2] (setting [5]) was 18.8 to 23 nM.

With “mTN8-19-23: affinity-matured peptibody; peptide PGAHDHCTRWPWMCPPQSRY”, in series [2] (setting [5]), the IC50 amounted to 6.58 nM.

The substance “mTN8-19-24: affinity-matured peptibody; peptide VAEEWHCRRWPWMCPPQDWR” had an IC50 in series [2] (setting [5]) of 1.67 to 2.93 nM.

For “TN12-34: peptibody; peptide AHWCEQGPWRYGNICMAY”, the IC50 in series [2] (setting [6]) is roughly 30 nM.

Substance “mTN8-19-16: affinity-matured peptibody; peptide YQTQGLCTRWPWMCPPQSQR” had an IC50 in series [2] (setting [5]) of 4.65 nM.

For the substance “1× mTN8-19-22: 1× affinity-matured peptibody; peptide TFSQGHCTRWPWMCPPQGWG”, in series [3], the half-life entry is “about 50.2 hours”. In series [2] (setting [5]), the IC50 lay within 1.93 to 3.26 nM.

In the case of “mTN8-19-2: affinity-matured peptibody; peptide YPEQGLCTRWPWMCPPQTLA”, the IC50 in series [2] (setting [5]) lay within 7.51 to 34.4 nM.

With “1× mTN8-19-33: 1× affinity-matured peptibody; peptide PESQGHCTRWPWMCPPQGWG”, the IC50 in series [2] (setting [5]) is 2.15 to 2.75 nM. In series [4], the body weight result is on record as “Significant increases in body weight”, the “fat percentage of body weight” value is “decreased” and the “lean body mass to fat mass ratio (NMR)” value is reported as “significantly increased”.

By IC50 is commonly meant the concentration that gives 50% inhibition.

The values are drawn from patent US20160038588A1, “Myostatin Antagonism in Human Subjects” (AMGEN INC., priority 2013, published 2016).
